± gives the uncertainty stated by the source.
Experiment: self-splicing fitness, log relative to wild type (ln ratio); higher = more splicing; Tetrahymena group I intron in knt gene, E. coli kanamycin selection, DiMSum; sequences stand for … in CUCUCU…GGAGGGAAAAGUUAUCAGGCAUGCACCUGGUAGCUAGUCUUUAAACCAAUAGAUUGCAUCGGUUUAAAAGGCAAGACCGUCAAAUUGCGGGAAAGGGGUCAACAGCCGUUCAGUACCAAGUCUCAGGGGAAACUUUGAGAUGGCCUUGCAAAGGGUAUGGUAAUAAGCUGACGGACAUGGUCCUAACCACGCAGCCAAGUCCUAAGUCAACAGAUCUUCUGUUGAUAUGGAUGCAGUUCACAGACUAAAUGUCGGUCGGGGAAGAUGUAUUCUUCUCAUAAGAUAUAGUCGGACCUCUCCUUAAUGGGAGCUAGCGGAUGAAGUGAUGCAACACUGGAGCCGCUGGGAACUAAUUUGUAUGCGAAAGUAUAUUGAUUAGUUUUGGAGUACUCGUGGUCG
Method in brief: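 Colonies from six replicate transformations of E. coli BL21(DE3) were pooled and amplicon-sequenced on an Illumina HiSeq 2500. The library placed an intron with all eight P1ex-region nucleotides randomised inside the knt kanamycin-resistance gene on pET-22b(+), and cells grew overnight at 37°C or 30°C on LB agar with or without 25 μg/mL kanamycin (plus 100 μg/mL carbenicillin, 50 μM IPTG, 0.2% rhamnose). Fitness is the DiMSum error-weighted combination of wild-type-normalised replicate fold changes, kanamycin versus none.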

| Sequence | self-splicing fitness (ln) (30 °C) | self-splicing fitness (ln) (37 °C) |
| --- | --- | --- |
| CCGAAGCAAUAUUACGCAGA | -2.91 ± 0.38 | -2.57 ± 0.33 |
| CGAGAGCAAUAUUACGUAAC | – | -1.98 ± 0.34 |
| CAGUAGCAAUAUUACGGAUC | -3.64 ± 0.43 | -1.48 ± 0.27 |
| AAUGAGCAAUAUUACGACAG | -3.71 ± 0.29 | -1.85 ± 0.26 |
| AAAAAGCAAUAUUACGGGAA | -2.09 ± 0.13 | -1.82 ± 0.13 |
| UAAGAGCAAUAUUACGUAGC | -4.28 ± 0.31 | -2.71 ± 0.28 |
| UAUGAGCAAUAUUACGAUCG | -1.79 ± 0.12 | -0.568 ± 0.12 |
| GACCAGCAAUAUUACGCUCC | -2.32 ± 0.22 | -1.83 ± 0.21 |
| AUCAAGCAAUAUUACGUAAA | -2.59 ± 0.13 | -1.11 ± 0.12 |
| CCUUAGCAAUAUUACGUAGU | -2.48 ± 0.095 | -0.664 ± 0.098 |
| AUCUAGCAAUAUUACGCUAG | -3.91 ± 0.27 | -3.5 ± 0.31 |
| AUAAAGCAAUAUUACGACAU | 0.424 ± 0.012 | 0.344 ± 0.032 |
| UUUAAGCAAUAUUACGCUGU | -3.57 ± 0.21 | -1.79 ± 0.18 |
| GAACAGCAAUAUUACGAAAG | -3.62 ± 0.18 | -1.58 ± 0.13 |
| CAGAAGCAAUAUUACGACUC | -0.803 ± 0.069 | -0.342 ± 0.095 |
| UGUCAGCAAUAUUACGUUAC | -3.4 ± 0.27 | -2.77 ± 0.43 |
| AUGCAGCAAUAUUACGGGCU | -2.25 ± 0.078 | -1.07 ± 0.1 |
| ACUCAGCAAUAUUACGUCAC | -3.57 ± 0.15 | -1.97 ± 0.15 |
| GGCGAGCAAUAUUACGGCGU | -2.49 ± 0.21 | -1.1 ± 0.2 |
| UGCGAGCAAUAUUACGUUAU | – | -3.11 ± 0.4 |
| AUACAGCAAUAUUACGGCUC | -0.178 ± 0.075 | 0.157 ± 0.1 |

| Sequence | self-splicing fitness (ln) (30 °C) | self-splicing fitness (ln) (37 °C) |
| --- | --- | --- |
| CAACAGCAAUAUUACGGUUC | -1.89 ± 0.075 | -1.34 ± 0.1 |
| UGAGAGCAAUAUUACGAAAG | -5.04 ± 0.28 | -2.86 ± 0.25 |
| AACUAGCAAUAUUACGACGU | -0.165 ± 0.069 | 0.653 ± 0.1 |
| CUAGAGCAAUAUUACGAUGA | -1.86 ± 0.14 | -1.12 ± 0.22 |
| CUAUAGCAAUAUUACGCCGU | -3.51 ± 0.29 | -2.6 ± 0.44 |
| UAAAAGCAAUAUUACGGACU | -1.21 ± 0.072 | -0.711 ± 0.094 |
| UUGUAGCAAUAUUACGAUGG | -1.53 ± 0.16 | -0.75 ± 0.2 |
| UACAAGCAAUAUUACGGUAU | -3.83 ± 0.21 | -2.54 ± 0.16 |
| UGACAGCAAUAUUACGUCCG | -0.00105 ± 0.12 | -0.342 ± 0.13 |
| CACUAGCAAUAUUACGAAGG | -1.65 ± 0.1 | -0.781 ± 0.15 |
| GAUUAGCAAUAUUACGGCUA | -0.867 ± 0.099 | -0.414 ± 0.1 |
| UCUCAGCAAUAUUACGUCAU | -3.13 ± 0.2 | -3.29 ± 0.27 |
| GGUUAGCAAUAUUACGUGGC | -3.21 ± 0.34 | -1.64 ± 0.19 |
| GAUCAGCAAUAUUACGCUGA | -3.83 ± 0.37 | -1.33 ± 0.21 |
| GAGAAGCAAUAUUACGGCAA | -0.843 ± 0.084 | 0.00427 ± 0.11 |
| AACAAGCAAUAUUACGUCCA | -1.12 ± 0.068 | -0.468 ± 0.076 |
| UCAAAGCAAUAUUACGUCCA | -1.19 ± 0.13 | -0.715 ± 0.13 |
| UCGUAGCAAUAUUACGAGAG | -4.38 ± 0.46 | -1.89 ± 0.25 |
| GGCGAGCAAUAUUACGCACU | -2.83 ± 0.34 | -1.07 ± 0.28 |
| AUUAAGCAAUAUUACGAUGC | -2.09 ± 0.15 | -1.86 ± 0.17 |
| AAAUAGCAAUAUUACGGUGC | -4.05 ± 0.43 | -1.81 ± 0.31 |
